Laboratory results taken from article PMC3413146 (Nucleic Acids Research, 2012).

Biological target: T1, RECQL4 (endogenous) (human (endogenous in HeLa), UniProt O94761 1-1208)
T1 sequence (looked up): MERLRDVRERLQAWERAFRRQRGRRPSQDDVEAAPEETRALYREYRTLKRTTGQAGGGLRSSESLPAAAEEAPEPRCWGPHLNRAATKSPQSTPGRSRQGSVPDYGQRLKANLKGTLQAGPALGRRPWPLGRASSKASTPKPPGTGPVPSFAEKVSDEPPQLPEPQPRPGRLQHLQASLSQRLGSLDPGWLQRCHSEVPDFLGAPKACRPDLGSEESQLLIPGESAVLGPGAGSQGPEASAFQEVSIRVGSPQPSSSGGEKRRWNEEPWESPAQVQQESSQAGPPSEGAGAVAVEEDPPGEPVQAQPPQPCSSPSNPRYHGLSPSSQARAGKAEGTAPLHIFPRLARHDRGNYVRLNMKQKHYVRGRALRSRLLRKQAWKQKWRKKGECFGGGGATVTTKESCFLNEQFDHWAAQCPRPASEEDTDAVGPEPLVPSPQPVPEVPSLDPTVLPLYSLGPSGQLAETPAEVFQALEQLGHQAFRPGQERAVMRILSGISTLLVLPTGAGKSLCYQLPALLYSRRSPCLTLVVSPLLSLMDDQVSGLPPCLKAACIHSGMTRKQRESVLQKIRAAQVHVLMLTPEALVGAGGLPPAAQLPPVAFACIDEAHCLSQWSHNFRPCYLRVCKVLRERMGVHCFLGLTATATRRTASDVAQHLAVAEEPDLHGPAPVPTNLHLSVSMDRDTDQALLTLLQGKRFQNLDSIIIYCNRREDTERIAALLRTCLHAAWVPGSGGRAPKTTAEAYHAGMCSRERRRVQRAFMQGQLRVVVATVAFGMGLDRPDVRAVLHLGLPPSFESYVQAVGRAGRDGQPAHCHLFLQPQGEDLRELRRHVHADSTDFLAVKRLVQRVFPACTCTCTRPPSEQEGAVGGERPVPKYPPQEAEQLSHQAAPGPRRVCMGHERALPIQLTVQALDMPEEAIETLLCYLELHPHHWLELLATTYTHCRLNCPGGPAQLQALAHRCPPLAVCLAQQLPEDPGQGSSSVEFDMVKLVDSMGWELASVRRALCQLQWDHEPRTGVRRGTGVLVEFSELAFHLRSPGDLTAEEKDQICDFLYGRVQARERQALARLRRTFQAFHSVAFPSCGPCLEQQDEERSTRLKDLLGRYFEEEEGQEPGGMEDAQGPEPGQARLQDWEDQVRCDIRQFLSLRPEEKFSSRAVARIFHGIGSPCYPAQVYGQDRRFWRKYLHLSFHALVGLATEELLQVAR
Experiment: co-IP

fold change of the co-immunoprecipitated BLM signal, S-phase against G0–G1 phase: ~5 fold
B1: BLM (endogenous) (natural protein)
chain: not shown
